This is an account of results in publication PMC5437018, “Mouse Rif1 is a regulatory subunit of protein phosphatase 1 (PP1)” (Scientific Reports, 2017).

Common to all, as to conditions: both partners purified
The target in experiment [1] is T1, Recombinant purified α-isoform of mammalian PP1 (residues 1–330), tag cleaved (mammalian, UniProt P62136 1-330).
T1 construct: Protein phosphatase 1 catalytic subunit, α-isoform, 'mammalian', residues 1–330; synthetic gene (GenScript); Printed mass 37.5 kDa; Subcloned into pMAL-c2G under the Ptac promoter; also called PP1α; source: E. coli BL21 AI (RIL), purified (TALON, TEV cleavage, heparin Sepharose); not shown: His6, N-terminal, cleaved
T1 sequence (P62136 whole entry, the tested form may be a part, canonical isoform): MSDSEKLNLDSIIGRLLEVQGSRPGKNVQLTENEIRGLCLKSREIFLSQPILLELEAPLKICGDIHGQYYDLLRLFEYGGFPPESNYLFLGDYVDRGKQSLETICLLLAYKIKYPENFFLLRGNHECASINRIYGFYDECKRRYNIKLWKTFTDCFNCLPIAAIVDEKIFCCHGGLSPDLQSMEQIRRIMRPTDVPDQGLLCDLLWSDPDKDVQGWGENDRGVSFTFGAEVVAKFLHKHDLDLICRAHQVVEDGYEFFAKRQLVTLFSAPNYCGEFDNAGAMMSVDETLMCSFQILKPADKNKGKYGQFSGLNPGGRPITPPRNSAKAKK
In words: ITC; CRI (140 µM) titrated into PP1 (18 µM), iTC200, 25 °C; 20 mM Tris-HCl pH 7.5, 200 mM NaCl, 1 mM MnCl2, 5 mM β-mercaptoethanol, 10% glycerol.

Experiment [2] addresses T1, Recombinant purified α-isoform of …. In words: SEC; analytical gel filtration on Superdex 75 in 20 mM Tris-HCl pH 7.5, 200 mM NaCl, 2 mM DTT, 1 mM MnCl2; PP1/CRI at molar ratios 1:1, 1:3 and 2:1.
For experiment [3] the target is unchanged. The experiment in a line: SPR; Biacore 3000; PP1 covalently coupled to a CM5 chip; Rif1 CRI, mutants and peptide injected at 20 µl/min in 10 mM Tris-HCl pH 7.5, 250 mM NaCl, 1 mM DTT, 2 mM MnCl2, 0.005% Tween 20; 1:1 binding model.

B1: Rif1 CRI (residues 2093–2190), purified, wild type (domain or fragment, mouse, UniProt Q6PR54 2093-2190, looked up)
chain: TSPEKLELDSFGSVNESPSGMQQARCVWSPLASPSTSILKRGLKRSQEDEISPVNKIRRVSFADPIYQAGLADDIDRRCSVVRSHSSNSSPIIKSVKT
notes: Rif1, mouse, CRI, residues 2093–2190; For NMR the same fragment was 15N or 15N/13C labelled; Printed mass 10.8 kDa; also called CR1; 15N-labeled CRI; source: recombinant, purified (TALON beads, tag cleaved by TEV protease)
In the case of B1, the Kd in experiment [1] turned out to be 22.8 ± 4.2 nM; in experiment [3], 9.7 ± 1.7 nM. Moreover, in experiment [1], the dH is -23.8 ± 0.129 kcal/mol. The “stoichiometry N” value in experiment [2] was determined as 1.
